Assays:
[1] = target: T1, C-terminally LgBiT-fused Lc-GPR25 (coelacanth (Latimeria chalumnae), UniProt H3AQL3 1-365); assay: cell-based or functional assay
T1 sequence: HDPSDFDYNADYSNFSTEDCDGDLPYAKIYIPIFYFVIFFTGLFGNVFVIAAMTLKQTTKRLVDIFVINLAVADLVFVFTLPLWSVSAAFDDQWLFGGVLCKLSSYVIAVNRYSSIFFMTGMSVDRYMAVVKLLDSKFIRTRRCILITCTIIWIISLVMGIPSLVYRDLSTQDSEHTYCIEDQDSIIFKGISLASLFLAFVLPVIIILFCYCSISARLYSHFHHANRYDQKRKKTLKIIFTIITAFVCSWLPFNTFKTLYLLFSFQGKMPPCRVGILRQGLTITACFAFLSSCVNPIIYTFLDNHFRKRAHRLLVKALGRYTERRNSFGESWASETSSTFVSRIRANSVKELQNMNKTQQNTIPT

[2] = target: T2, C-terminally large NanoLuc fragment (LgBiT)-fused Dr-GPR25 (zebrafish (Danio rerio), UniProt A0AC58GT18 1-377); assay: cell-based or functional assay
T2 sequence: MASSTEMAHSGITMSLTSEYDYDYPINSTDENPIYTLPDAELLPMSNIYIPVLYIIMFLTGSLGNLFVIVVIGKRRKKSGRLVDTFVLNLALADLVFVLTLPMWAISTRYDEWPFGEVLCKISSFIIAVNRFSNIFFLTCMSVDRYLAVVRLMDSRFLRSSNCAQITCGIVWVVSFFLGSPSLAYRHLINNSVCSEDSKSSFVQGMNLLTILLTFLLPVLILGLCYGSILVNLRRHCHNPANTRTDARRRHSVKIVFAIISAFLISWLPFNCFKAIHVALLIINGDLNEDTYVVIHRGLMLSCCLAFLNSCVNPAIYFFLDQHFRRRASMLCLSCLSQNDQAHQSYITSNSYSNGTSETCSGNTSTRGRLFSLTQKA

B1: N-terminally 6×His-tagged wild-type (WT) human CXCL17 (ligand)
chain: SSLNPGVARGHRDRGQASRRWLQEGGQECECKDWFLRAPRRKFMTVSGLPKKQCPCDHFKGNVKKTRHQRHHRKPNKHSRACQQFLKQCQLRSFALPL
With B1 the “NanoBiT-based β-arrestin recruitment (SmBiT-ARRB2), EC50 of the dose curve” value [1] was about 300 nM, the “NanoBiT-based β-arrestin recruitment (SmBiT-ARRB2), maximal effect” value [1] was about 3 fold over background and the “NanoBiT-based β-arrestin recruitment (SmBiT-ARRB2), EC50 of the dose curve” value [2] was about 60 nM. The “NanoBiT-based β-arrestin recruitment (SmBiT-ARRB2), maximal effect” value [2] was about 5 fold over background.

Source: doi:10.1101/2025.06.10.658772 (bioRxiv, 2025)
